Three molecules from patent US20190276796A1 can be followed below.

The chains are these.
B1: control h1F6 antibody (humanized IgG1 anti-CD70 monoclonal antibody, from CHO DG44 cells cultured without fucose analog; core fucosylated) (antibody, INN chains, looked up, V domains shown)
VH: QVQLVQSGAEVKKPGASVKVSCKASGYTFTNYGMNWVRQAPGQGLKWMGWINTYTGEPTYADAFKGRVTMTRDTSISTAYMELSRLRSDDTAVYYCARDYGDYGMDYWGQGTTVTVSS
VL: DIVMTQSPDSLAVSLGERATINCRASKSVSTSGYSFMHWYQQKPGQPPKLLIYLASNLESGVPDRFSGSGSGTDFTLTISSLQAEDVAVYYCQHSREVPWTFGQGTKVEIK
B2: h1F6 antibody from host cells cultured in the presence of 50 µM alkynyl fucose peracetate (non-core fucosylated anti-CD70 antibody) (antibody, INN chains, looked up, V domains shown)
VH: QVQLVQSGAEVKKPGASVKVSCKASGYTFTNYGMNWVRQAPGQGLKWMGWINTYTGEPTYADAFKGRVTMTRDTSISTAYMELSRLRSDDTAVYYCARDYGDYGMDYWGQGTTVTVSS
VL: DIVMTQSPDSLAVSLGERATINCRASKSVSTSGYSFMHWYQQKPGQPPKLLIYLASNLESGVPDRFSGSGSGTDFTLTISSLQAEDVAVYYCQHSREVPWTFGQGTKVEIK
modifications: non-core fucosylated (alkynyl fucose)
B3: h1F6 antibody from host cells cultured in the presence of 100 µM alkynyl fucose peracetate (antibody, INN chains, looked up, IgG1, V domains shown)
VH: QVQLVQSGAEVKKPGASVKVSCKASGYTFTNYGMNWVRQAPGQGLKWMGWINTYTGEPTYADAFKGRVTMTRDTSISTAYMELSRLRSDDTAVYYCARDYGDYGMDYWGQGTTVTVSS
VL: DIVMTQSPDSLAVSLGERATINCRASKSVSTSGYSFMHWYQQKPGQPPKLLIYLASNLESGVPDRFSGSGSGTDFTLTISSLQAEDVAVYYCQHSREVPWTFGQGTKVEIK
modifications: produced with 100 µM alkynyl fucose

In the assay the target is T1, CD70 (on CD70+ 786-O target cells) (UniProt P32970).
T1 sequence (looked up): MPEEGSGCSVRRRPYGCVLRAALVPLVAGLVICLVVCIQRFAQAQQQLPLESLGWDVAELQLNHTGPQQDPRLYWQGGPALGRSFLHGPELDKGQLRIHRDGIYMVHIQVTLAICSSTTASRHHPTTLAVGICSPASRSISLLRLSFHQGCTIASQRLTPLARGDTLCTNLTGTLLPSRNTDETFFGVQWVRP
Description: cell-based or functional assay.
Consider B1, for which the half maximal lysis (EC50), ADCC 51Cr release assay worked out at 9 ng/mL and the maximal specific lysis was found to be 42.5 percent.

In turn, B2 displayed a half maximal lysis (EC50), ADCC 51Cr release assay of 0.5 ng/mL and a maximal specific lysis of 53.3 percent.

On to B3, for which the half maximal lysis (EC50), ADCC 51Cr release assay is 0.3 ng/mL and the maximal specific lysis came to 54.8 percent.
